Source: the Human Domainome abundance scans (Beltran et al. 2025)
± gives the uncertainty stated by the source.

B1: Telomeric repeat-binding factor 2, residues 489 to 542; numbered along this chain, Q15554 (parent)
chain: KQKWTVEESEWVKAGVQKYGEGNWAAISKNYPFVNRTAVMIKDRWRTMKRLGMN

Variants of: B1
Assay: abundance fitness (aPCA) (normalised: wild type 0, dead -1); higher = more abundant; growth selection in yeast, the domain comes from the species named
Details: Homo sapiens

Abundance fitness: each site, then its substitutions
K29: C 0.162 ± 0.13 | L -0.129 ± 0.076 | W -0.54 ± 0.13 | N 0.205 ± 0.45 | S -0.082 ± 0.053 | T -0.051 ± 0.12 | H -0.042 ± 0.23 | G -0.364 ± 0.051 | R -0.281 ± 0.088 | A -0.256 ± 0.11 | Y -0.116 ± 0.16 | V -0.066 ± 0.08 | D -0.188 ± 0.15 | P -0.626 ± 0.23 | M -0.091 ± 0.091 | I -0.221 ± 0.1
T37: V -0.461 ± 0.085 | N -0.614 ± 0.16 | F -0.629 ± 0.15 | Q -0.903 ± 0.26 | K -0.789 ± 0.12 | R -0.999 ± 0.093 | Y -0.967 ± 0.41 | M -0.974 ± 0.27 | L -0.256 ± 0.054 | P -0.404 ± 0.12 | G -0.668 ± 0.063 | C -0.724 ± 0.14 | D -0.247 ± 0.082 | I -0.689 ± 0.17
A26: I -0.177 ± 0.28 | M -0.493 ± 0.28 | S -0.068 ± 0.053 | N -0.656 ± 0.22 | K -0.005 ± 0.11 | W -0.545 ± 0.16 | V -0.025 ± 0.043 | Q 0.078 ± 0.15 | D -0.266 ± 0.14 | L -0.022 ± 0.082 | T 0.065 ± 0.22 | C 0.047 ± 0.14 | G -0.792 ± 0.11 | E -0.18 ± 0.12 | Y -0.288 ± 0.15
N23: V -0.27 ± 0.092 | Y -0.539 ± 0.28 | W -0.39 ± 0.26
I41: S -1.13 ± 0.38 | W -1.01 ± 0.34 | E -0.975 ± 0.17 | T -0.786 ± 0.28 | V -0.392 ± 0.056 | N -0.945 ± 0.15 | D -0.673 ± 0.16 | F -0.616 ± 0.096 | G -1.06 ± 0.1 | A -1.02 ± 0.12 | R -1.16 ± 0.15 | C -0.692 ± 0.15
R36: I -0.685 ± 0.33 | S -0.654 ± 0.086 | Q -0.897 ± 0.28 | C -0.495 ± 0.12 | K 0.228 ± 0.098 | Y -0.614 ± 0.25 | V -0.4 ± 0.051 | H -0.649 ± 0.28 | T -0.853 ± 0.25 | M -0.693 ± 0.24 | W -0.95 ± 0.14 | G -0.816 ± 0.051 | A -0.367 ± 0.069
P32: L -0.726 ± 0.037 | T -0.532 ± 0.042 | G -0.429 ± 0.037 | Y -0.864 ± 0.068 | M -0.565 ± 0.04 | F -0.746 ± 0.045 | H -0.574 ± 0.043 | E -0.611 ± 0.045 | K -0.316 ± 0.039 | Q -0.501 ± 0.044 | S -0.361 ± 0.037 | N -0.294 ± 0.052 | R -0.4 ± 0.042 | I -0.774 ± 0.069 | A -0.327 ± 0.038 | C -0.593 ± 0.053 | V -0.747 ± 0.04
D43: N -0.061 ± 0.1 | S -0.204 ± 0.078 | K 0.011 ± 0.11 | I -0.866 ± 0.24 | F -0.68 ± 0.17 | Y -0.364 ± 0.12 | P -0.942 ± 0.27 | W -0.502 ± 0.073 | C -0.449 ± 0.091 | G -0.672 ± 0.097 | M -0.368 ± 0.083 | R -0.072 ± 0.074 | E -0.046 ± 0.056 | Q -0.07 ± 0.11
W24: A -0.932 ± 0.49 | E -0.585 ± 0.16 | F -0.642 ± 0.23 | P -0.89 ± 0.36 | K -0.788 ± 0.48 | R -1.15 ± 0.18 | I -0.291 ± 0.27 | L -0.858 ± 0.18 | V -1.08 ± 0.23 | G -0.596 ± 0.14 | D -0.72 ± 0.2 | S -0.226 ± 0.15 | Q -0.442 ± 0.34 | T -0.705 ± 0.21 | C -0.982 ± 0.34
I27: E -0.938 ± 0.26 | A -0.862 ± 0.24 | S -1.12 ± 0.23 | K -0.757 ± 0.09 | M -0.561 ± 0.22 | L -0.457 ± 0.1 | F -0.606 ± 0.35 | G -0.901 ± 0.11 | H -0.235 ± 0.26 | W -0.919 ± 0.24 | P -0.87 ± 0.41 | R -0.788 ± 0.055 | V -0.545 ± 0.13 | T -0.533 ± 0.28
F33: Q -0.817 ± 0.28 | H -0.212 ± 0.26 | T -0.826 ± 0.19 | K -0.715 ± 0.21 | A -0.745 ± 0.061 | I -0.834 ± 0.34 | P -0.871 ± 0.087 | M -0.652 ± 0.08 | W -0.166 ± 0.054 | R -0.845 ± 0.079 | L -0.65 ± 0.09 | N -0.499 ± 0.43 | D -1.02 ± 0.35 | V -0.604 ± 0.075 | S -0.972 ± 0.2 | C -0.899 ± 0.29
N35: K -0.222 ± 0.21 | G -0.259 ± 0.057 | V -0.643 ± 0.06 | E -0.185 ± 0.11 | M -0.555 ± 0.12 | W -0.588 ± 0.13 | Q 0.215 ± 0.12 | S -0.27 ± 0.041 | Y -0.375 ± 0.15 | F -1.14 ± 0.26 | R -0.317 ± 0.083 | T -0.476 ± 0.082 | P -1.09 ± 0.34 | I -0.758 ± 0.14 | C -0.71 ± 0.18 | H -0.277 ± 0.35
R44: P -0.863 ± 0.08 | S -0.508 ± 0.045
